According to patent publication US20240150440A1 (LUMEN BIOSCIENCE, published 2024):
Where two headings read alike, the source gives them in different places.

Assays:
[1] = molecular target: SARS-COV-2 Wuhan Reference RBD (SARS-CoV-2, UniProt P0DTC2 319-541); test: ELISA, RBD coated
[2] = molecular target: T1, recombinant SARS-CoV-2 RBD with C-terminal AviTag (SARS-CoV-2, UniProt P0DTC2 319-541); test: ELISA, competition with coated ACE2-Fc for RBD [Cont. 8]
[3] = molecular target: T1, recombinant SARS-CoV-2 RBD with …; test: BLI, biotinylated RBD on streptavidin biosensors [Cont. 6]
[4] = molecular target: T1, recombinant SARS-CoV-2 RBD with …; test: ELISA, competition with coated ACE2-Fc for RBD [Cont. 6]
[5] = molecular target: T1, recombinant SARS-CoV-2 RBD with …
[6] = molecular target: T1, recombinant SARS-CoV-2 RBD with …; test: ELISA, competition with coated ACE2-Fc for RBD [Cont. 1]

B1: PP1094 MBP-5HVZ-PAPA-RN-1-H6 (VHH)
VHH: QVQLVESGGGLVQPGGSLRLSCAASGYIFEGGPTAWFRQAPGKGREFVAAITTSGETSYAYSVKGRFTISRDNAKNTVYLQMNSLKPEDTAVYYCNATDRDETGYDYWGQGTQVTVSS
Binder B1 has an EC50 [1] of 0.96 nM and an IC50 [2] of 7.8 nM.

B2: PP885 MBP-R5b-C5-H6 (VHH)
VHH: QVQLVESGGGLVQPGGSLRLSCAASGSPFKTQTVHWFRQAPGKGREWVASITSGSGTQYMDSVKGRFTISRDNAKNTVYLQMNSLKPEDTAVYYCAAANDGYGVDWGQGTQVTVSS
notes: Form: Monomer
With B2 the Kd [3] was 88.5 nM.

B3: PP904 MBP-5HVZ-R5b-C5-H6 (VHH)
VHH: QVQLVESGGGLVQPGGSLRLSCAASGSPFKTQTVHWFRQAPGKGREWVASITSGSGTQYMDSVKGRFTISRDNAKNTVYLQMNSLKPEDTAVYYCAAANDGYGVDWGQGTQVTVSS
notes: Form: Dimer
For B3, the EC50 [1] was 1.06 nM, the Kd [3] was 11.8 nM and the IC50 [4] was 2.5 nM.

B4: PP883 MBP-R1e-D4-H6 (VHH)
VHH: QVQLVESGGGLVQPGGSLRLSCAASGSIREINAMHWVRQAPGKGRELVASIDSGSLDYYADSVKGRFTISRDNAKNTVYLQMNSLKPEDTAVYYCAASRSGDYRYWGQGTQVTVSS
notes: Form: Monomer
Work on B4 yielded a Kd [3] of 47 nM.

B5: PP1095 MBP-5HVZ-PAPA-RN-2-H6 (VHH)
VHH: QVQLVESGGGLVQPGGSLRLSCAASGSYFSKNAVHWYRQAPGKGREWVAALTNSGSGNYKDSVKGRFTISRDNAKNTVYLQMNSLKPEDTAVYYCTANISESTGQGYDYWGQGTQVTVSS
B5 was tested, and the EC50 [1] was 0.78 nM and the IC50 [2] was 3.2 nM.

B6: MBP-5HVZ-R5C-A1-H6 (VHH, not shown: large carriers; small tags and cut ends)
VHH: QVQLVESGGGLVQPGGSLRLSCAASGLDVSINFMHWYRQAPGKEREGVAGITWQGSTYYADSVKGRFTISRDNAKNTVYLQMNSLKPEDTAVYYCATVWAGGTPNDYWGQGTQVTVSS
Binder B6 has an IC50 [5] of 10.3 nM and a Kd [5] of 379 nM.

B7: PP922 MBP-R5a-F5-H6 (VHH)
VHH: QVQLVESGGGLVQPGGSLRLSCAASGYHASILAMHWVRQAPGKEREWVASMTWSDMTQYSDSVKGRFTISRDNAKNTVYLQMNSLKPEDTAVYYCAATYVTRDRPWTHWGQGTQVTVSS
notes: Form: Monomer
With B7 the IC50 [2] was 97.9 nM.

B8: PP1098 MBP-5HVZ-PAPA-RN-9-H6 (VHH)
VHH: QVQLVESGGGLVQPGGSLRLSCAASGLRFAMTEMAWFRQAPGKQREFVALITEGGSGSYGDSVKGRFTISRDNAKNTVYLQMNSLKPEDTAVYYCAALHYTEGANTESATTFDYWGQGTQVTVSS
B8 showed an EC50 [1] of 0.83 nM and an IC50 [2] of 2.3 nM.

B9: R5C-A2 (competition ELISA sample) (VHH)
VHH: QVQLVESGGGLVQPGGSLRLSCAASGDIFSKNAMHWVRQAPGKQREFVAGIYSDGSSLYADSVKGRFTISRDNAKNTVYLQMNSLKPEDTAVYYCAALDYSARYRTWGQGTQVTVSS
Binder B9 has an IC50 [5] of 13.7 nM and a Kd [5] of 13.2 nM.

B10: PP881 MBP-R5a-F2-H6 (VHH)
VHH: QVQLVESGGGLVQPGGSLRLSCAASGSISSIEAMSWFRQAPGKQREGVATMASGGDTSYADSVKGRFTISRDNAKNTVYLQMNSLKPEDTAVYYCAAQTYRPDTWGRYTFWGQGTQVTVSS
notes: Form: Monomer
B10 was tested, and the Kd [3] was 705 nM.

B11: PP900 MBP-5HVZ-R5a-F2-H6 (VHH)
VHH: QVQLVESGGGLVQPGGSLRLSCAASGSISSIEAMSWFRQAPGKQREGVATMASGGDTSYADSVKGRFTISRDNAKNTVYLQMNSLKPEDTAVYYCAAQTYRPDTWGRYTFWGQGTQVTVSS
notes: Form: Dimer
For B11, the EC50 [1] was 0.47 nM, the Kd [3] was 9.13 nM and the IC50 [4] was 1.7 nM.

B12: PP901 MBP-5HVZ-R1e-B2-H6 (VHH)
VHH: QVQLVESGGGLVQPGGSLRLSCAASGQITAENYMHWYRQAPGKQREWVAAITTGGSTLYADSVKGRFTISRDNAKNTVYLQMNSLKPEDTAVYYCNADRSYFPDYWGQGTQVTVSS
notes: Form: Dimer
B12 showed a Kd [3] of 197 nM.

B13: PP1097 MBP-5HVZ-PAPA-RN-5-H6 (VHH)
VHH: QVQLVESGGGLVQPGGSLRLSCAASGSSFRILAMHWYRQAPGKNREWVAVITSNGNTYYADSVKGRFTISRDNAKNTVYLQMNSLKPEDTAVYYCNADTLDLDDGATYNYWGQGTQVTVSS
Work on B13 yielded an EC50 [1] of 0.25 nM and an IC50 [2] of 2.3 nM.

B14: MBP-R5C-B1-H6 (VHH, not shown: large carriers; small tags and cut ends)
VHH: QVQLVESGGGLVQPGGSLRLSCAASGSGFSNNAMHWYRQAPGKQREGVAGITSGSVSFYADSVKGRFTISRDNAKNTVYLQMNSLKPEDTAVYYCAAVTGSSTGNAGQGYLTWGQGTQVTVSS
B14 showed a Kd [5] of 55.3 nM.

B15: PP884 MBP-R1i-A11-H6 (VHH)
VHH: QVQLVESGGGLVQPGGSLRLSCAASGSILQINAIHWFRQAPGKQREEVAAITSGGSTGYADSVKGRFTISRDNAKNTVYLQMNSLKPEDTAVYYCAATSTRGGLDSDYWGQGTQVTVSS
notes: Form: Monomer
For B15, the Kd [3] was 23.7 nM and the IC50 [4] was 173 nM.

B16: PP903 MBP-5HVZ-R1i-A11-H6 (VHH)
VHH: QVQLVESGGGLVQPGGSLRLSCAASGSILQINAIHWFRQAPGKQREEVAAITSGGSTGYADSVKGRFTISRDNAKNTVYLQMNSLKPEDTAVYYCAATSTRGGLDSDYWGQGTQVTVSS
notes: Form: Dimer
Work on B16 yielded an EC50 [1] of 0.27 nM, a Kd [3] of 6.98 nM and an IC50 [4] of 1.5 nM.

B17: PP1096 MBP-5HVZ-PAPA-RN-3-H6 (VHH)
VHH: QVQLVESGGGLVQPGGSLRLSCAASGFEFTYRAVHWFRQAPGKGREWVAGVVSGGSTYYADSVKGRFTISRDNAKNTVYLQMNSLKPEDTAVYYCNAGPQAEEDTYDYWGQGTQVTVSS
B17 showed an EC50 [1] of 1.47 nM and an IC50 [2] of 46.8 nM.

B18: PP1100 MBP-5HVZ-PAPA-RN-14-H6 (VHH)
VHH: QVQLVESGGGLVQPGGSLRLSCAASGENFSGNLVHWFRQAPGKAREGVATVTSTGSGYYADSVKGRFTISRDNAKNTVYLQMNSLKPEDTAVYYCAAKHQKGEIPYYDWGQGTQVTVSS
notes: Form: Dimer
B18 was tested, and the EC50 [1] was 0.31 nM and the IC50 [2] was 3.2 nM.

B19: PP1147 MBP-5HVZ-PAPA-R5a-B7-H6 (VHH)
VHH: QVQLVESGGGLVQPGGSLRLSCAASGAFFSYGAIHWFRQAPGKQREEVAAITSGGSTGYADSVKGRFTISRDNAKNTVYLQMNSLKPEDTAVYYCNAGVVWLPSNAAYNLWGQGTQVTVSS
notes: Form: Dimer
With B19 the EC50 [1] was 0.36 nM and the IC50 [4] was 2.4 nM.

B20: PP1135 MBP-4B0F-PAPA-R5a-B7-H6 (VHH)
VHH: QVQLVESGGGLVQPGGSLRLSCAASGAFFSYGAIHWFRQAPGKQREEVAAITSGGSTGYADSVKGRFTISRDNAKNTVYLQMNSLKPEDTAVYYCNAGVVWLPSNAAYNLWGQGTQVTVSS
notes: Form: Heptamer
B20 was tested, and the IC50 [4] was 18.2 nM.

B21: PP1159 MPB-scTRP-PAPA-R5a-B7-H6 (VHH)
VHH: QVQLVESGGGLVQPGGSLRLSCAASGAFFSYGAIHWFRQAPGKQREEVAAITSGGSTGYADSVKGRFTISRDNAKNTVYLQMNSLKPEDTAVYYCNAGVVWLPSNAAYNLWGQGTQVTVSS
notes: Form: Trimer
Work on B21 yielded an IC50 [4] of 56.5 nM.

B22: PP933 MBP-5HVZ-R5e-C1-H6 (VHH)
VHH: QVQLVESGGGLVQPGGSLRLSCAASGSIPYVQAMSWFRQAPGKGREGVASIGWGGGTYYADSVKGRFTISRDNAKNTVYLQMNSLKPEDTAVYYCAAKFRENFSFYDYWGQGTQVTVSS
notes: Form: Dimer
B22 showed an EC50 [1] of 4.9 nM and an IC50 [2] of 1.9 nM.

B23: PP906 MBP-5HVZ-S1b-E7-H6 (VHH)
VHH: QVQLVESGGGLVQPGGSLRLSCAASGGEFSDNGLHWFRQAPGKQREFVATASSDGSTQYRDSVKGRFTISRDNAKNTVYLQMNSLKPEDTAVYYCTALLMSSAGEYDVWGQGTQVTVSS
notes: Form: Dimer
B23 was tested, and the EC50 [1] was 2 nM, the Kd [3] was 15.5 nM and the IC50 [4] was 35.7 nM.

B24: PP1144 MBP-5HVZ-PAPA-R2c-F6-H6 (VHH)
VHH: QVQLVESGGGLVQPGGSLRLSCAASGRILAANIVHWYRQAPGKEREGVAGITTGGSNYYSDSVKGRFTISRDNAKNTVYLQMNSLKPEDTAVYYCNALGLGSASGSYESWGQGTQVTVSS
notes: Form: Dimer
Binder B24 has an IC50 [6] of 3.2 nM.

B25: PP1132 MBP-4B0F-PAPA-R2c-F6-H6 (VHH)
VHH: QVQLVESGGGLVQPGGSLRLSCAASGRILAANIVHWYRQAPGKEREGVAGITTGGSNYYSDSVKGRFTISRDNAKNTVYLQMNSLKPEDTAVYYCNALGLGSASGSYESWGQGTQVTVSS
notes: Form: Heptamer
B25 showed an IC50 [6] of 158 nM.

B26: PP1156 MPB-scTRP-PAPA-R2c-F6-H6 (VHH)
VHH: QVQLVESGGGLVQPGGSLRLSCAASGRILAANIVHWYRQAPGKEREGVAGITTGGSNYYSDSVKGRFTISRDNAKNTVYLQMNSLKPEDTAVYYCNALGLGSASGSYESWGQGTQVTVSS
notes: Form: Trimer
B26 gave an IC50 [6] of 165 nM.

B27: PP880 MBP-R5a-B5-H6 (VHH)
VHH: QVQLVESGGGLVQPGGSLRLSCAASGDDFIENAISWYRQAPGKGREWVAAVTLGGHSNYADSVKGRFTISRDNAKNTVYLQMNSLKPEDTAVYYCNYPVGIPAVAIDGRRSYGYWGQGTQVTVSS
notes: Form: Monomer
B27 was tested, and the Kd [3] was 60.8 nM and the IC50 [4] was 43.9 nM.

B28: PP899 MBP-5HVZ-R5a-B5-H6 (VHH)
VHH: QVQLVESGGGLVQPGGSLRLSCAASGDDFIENAISWYRQAPGKGREWVAAVTLGGHSNYADSVKGRFTISRDNAKNTVYLQMNSLKPEDTAVYYCNYPVGIPAVAIDGRRSYGYWGQGTQVTVSS
notes: Form: Dimer
B28 was tested, and the IC50 [4] was 0.9 nM.

B29: MBP-5HVZ-R5C-B2-H6 (VHH, not shown: large carriers; small tags and cut ends)
VHH: QVQLVESGGGLVQPGGSLRLSCAASGSIFSLNWVHWFRQAPGKSREGVASINSGGHADYSDSVKGRFTISRDNAKNTVYLQMNSLKPEDTAVYYCAAGPYGAYNFNSWGQGTQVTVSS
B29 gave an IC50 [5] of 5.9 nM and a Kd [5] of 57.3 nM.

B30: PP935 MBP-5HVZ-S3b-E11-H6 (VHH)
VHH: QVQLVESGGGLVQPGGSLRLSCAASGDIYSQSAMAWYRQAPGKEREFVAAITTTGSRSYKDSVKGRFTISRDNAKNTVYLQMNSLKPEDTAVYYCAAFAVRSSSVSDAYDYWGQGTQVTVSS
notes: Form: Dimer
In the case of B30, the EC50 [1] is reported as 0.47 nM and the IC50 [2] is reported as 12.2 nM.
